Measurements from the Immune Epitope Database (IEDB).

How the values were obtained:
HLA-B*51:01 = test: IEDB peptide-MHC binding, purified MHC/direct/fluorescence; filed as Kd, often an IC50 or EC50 that approximates it; ≥ and ≤ were set here for values at or beyond the usual limits of such assays; details: source organism: Homo sapiens
HLA-C*07:02 = test: as above; details: source organism: Homo sapiens
HLA-C*05:01 = test: as above; details: source organism: Homo sapiens
HLA-A*68:23 = test: IEDB peptide-MHC binding, purified MHC/competitive/fluorescence; filed as Kd, often an IC50 or EC50 that approximates it; ≥ and ≤ were set here for values at or beyond the usual limits of such assays; details: source organism: Homo sapiens
HLA-B*40:13 = test: as above; details: source organism: Homo sapiens
HLA-B*15:42 = test: as above; details: source organism: Homo sapiens
HLA-C*06:02 [1] = test: as above; details: source organism: Homo sapiens
HLA-B*83:01 = test: as above; details: source organism: Homo sapiens
HLA-A*32:15 = test: as above; details: source organism: Homo sapiens
HLA-A*32:07 = test: as above; details: source organism: Homo sapiens
HLA-B*45:06 = test: as above; details: source organism: Homo sapiens
HLA-B*58:01 = test: IEDB peptide-MHC binding, purified MHC/direct/fluorescence; filed as Kd, often an IC50 or EC50 that approximates it; ≥ and ≤ were set here for values at or beyond the usual limits of such assays
HLA-B*15:09 = test: as above; details: source organism: Brucella suis 1330
HLA-C*14:02 = test: as above; details: source organism: Brucella abortus S19
HLA-C*06:02 [2] = test: as above; details: source organism: Brucella abortus S19
HLA-B*08:03 = test: as above; details: source organism: Brucella suis 1330
HLA-C*15:02 = test: as above; details: source organism: Brucella abortus S19
HLA-B*07:02 = test: as above
HLA-B*39:01 = test: as above; details: source organism: Brucella suis 1330
HLA-A*26:01 = test: as above
HLA-A*69:01 = test: as above
HLA-A*01:01 = test: as above
HLA-A*31:01 = test: as above
HLA-A*23:01 = test: as above; details: source organism: Brucella abortus 2308
HLA-B*08:01 = test: as above
HLA-B*57:01 = test: as above; details: source organism: Brucella abortus 2308
HLA-A*24:03 = test: as above
HLA-B*18:01 = test: IEDB peptide-MHC binding, purified MHC/competitive/fluorescence; filed as Kd, often an IC50 or EC50 that approximates it; ≥ and ≤ were set here for values at or beyond the usual limits of such assays; details: source organism: Brucella abortus S19
HLA-A*02:03 = test: as above; details: source organism: Brucella abortus S19
HLA-A*26:02 = test: as above; details: source organism: Brucella abortus S19
HLA-A*02:06 = test: as above; details: source organism: Brucella abortus S19
HLA-B*15:01 [3] = test: as above; details: source organism: Brucella abortus S19
HLA-A*11:01 [4] = test: as above; details: source organism: Brucella abortus S19
HLA-A*02:01 [5] = test: as above; details: source organism: Brucella abortus S19
HLA-A*68:02 = test: as above; details: source organism: Brucella abortus S19
HLA-B*15:17 = test: as above; details: source organism: Brucella abortus S19
HLA-A*03:01 = test: IEDB peptide-MHC binding, purified MHC/direct/fluorescence; filed as Kd, often an IC50 or EC50 that approximates it; ≥ and ≤ were set here for values at or beyond the usual limits of such assays; details: source organism: Giardia lamblia ATCC 50803
HLA-B*44:02 = test: as above; details: source organism: Giardia lamblia ATCC 50803
HLA-B*40:01 = test: as above; details: source organism: Giardia lamblia ATCC 50803
HLA-B*73:01 = test: as above; details: source organism: Giardia lamblia ATCC 50803
HLA-B*15:01 [6] = test: as above; details: source organism: Giardia lamblia ATCC 50803
HLA-A*11:01 [7] = test: as above; details: source organism: Giardia lamblia ATCC 50803
HLA-A*02:01 [8] = test: as above; details: source organism: Giardia lamblia ATCC 50803
HLA-A*30:01 = test: as above; details: source organism: Giardia lamblia ATCC 50803
HLA-B*27:05 = test: as above; details: source organism: Giardia lamblia ATCC 50803
HLA-C*04:01 = test: as above; details: source organism: Nostoc punctiforme PCC 73102
[9] = source organism: Brucella abortus 2308
[10] = source organism: Brucella suis 1330
[11] = source organism: Giardia lamblia ATCC 50803

Sequence: MAMGILHTI
- Kd (HLA-B*51:01): 0.168 µM
- Kd (HLA-C*07:02): 3.31 µM
- Kd (HLA-C*05:01): ≥ 20 µM
- Kd (HLA-A*68:23): 0.0065 µM
- Kd (HLA-B*40:13): 0.213 µM
- Kd (HLA-B*15:42): ≥ 5 µM
- Kd (HLA-C*06:02 [1]): 1.78 µM
- Kd (HLA-B*83:01): 3.6 µM
- Kd (HLA-A*32:15): 0.0202 µM
- Kd (HLA-A*32:07): 0.0047 µM
- Kd (HLA-B*45:06): ≥ 5 µM

Sequence: YWMGGTTYF
- Kd (HLA-B*58:01; [9]): ≥ 20 µM
- Kd (HLA-B*15:09): ≥ 20 µM
- Kd (HLA-C*14:02): ≤ 0.001 µM
- Kd (HLA-C*06:02 [2]): ≥ 20 µM
- Kd (HLA-B*08:03): ≥ 20 µM
- Kd (HLA-C*15:02): ≥ 20 µM
- Kd (HLA-B*07:02; [9]): ≥ 20 µM
- Kd (HLA-B*39:01): ≥ 20 µM
- Kd (HLA-A*26:01; [10]): ≥ 20 µM
- Kd (HLA-A*69:01; [9]): ≥ 20 µM
- Kd (HLA-A*01:01; [9]): ≥ 20 µM
- Kd (HLA-A*31:01; [9]): ≥ 20 µM
- Kd (HLA-A*23:01): 0.0535 µM
- Kd (HLA-B*08:01; [10]): ≥ 20 µM
- Kd (HLA-B*57:01): ≥ 20 µM
- Kd (HLA-A*24:03; [9]): ≤ 0.001 µM
- Kd (HLA-B*18:01): ≥ 20 µM
- Kd (HLA-A*02:03): 4.23 µM
- Kd (HLA-A*26:02): ≥ 20 µM
- Kd (HLA-A*02:06): 0.797 µM
- Kd (HLA-B*15:01 [3]): 1.04 µM
- Kd (HLA-A*11:01 [4]): 2.07 µM
- Kd (HLA-A*02:01 [5]): 1.12 µM
- Kd (HLA-A*68:02): ≥ 20 µM
- Kd (HLA-B*15:17): 1.02 µM

Sequence: IRNLVKRYK
- Kd (HLA-A*03:01): ≥ 20 µM
- Kd (HLA-B*58:01; [11]): ≥ 20 µM
- Kd (HLA-B*44:02): ≥ 20 µM
- Kd (HLA-B*40:01): ≥ 20 µM
- Kd (HLA-B*73:01): 3.5 µM
- Kd (HLA-B*15:01 [6]): ≥ 20 µM
- Kd (HLA-A*11:01 [7]): ≥ 20 µM
- Kd (HLA-A*02:01 [8]): ≥ 20 µM
- Kd (HLA-B*07:02; [11]): ≥ 20 µM
- Kd (HLA-A*26:01; [11]): ≥ 20 µM
- Kd (HLA-A*30:01): 0.0508 µM
- Kd (HLA-A*69:01; [11]): ≥ 20 µM
- Kd (HLA-A*01:01; [11]): ≥ 20 µM
- Kd (HLA-B*27:05): 1.21 µM
- Kd (HLA-A*31:01; [11]): ≥ 20 µM
- Kd (HLA-B*08:01; [11]): ≥ 20 µM

Sequence: YWPTEGYEF
- Kd (HLA-C*04:01): 0.222 µM
- Kd (HLA-A*24:03; source organism: Escherichia coli O157:H7): ≤ 0.001 µM
